The target of data set [1] is FLAG-tagged ubiquitin, P0CG48.
The target in data set [2] is ubiquitin-aminomethylcoumarin, P0CG48.
In data set [3] the target is T1, RLRGG-AMC, C-terminal peptide motif of Ub and ISG15 coupled to aminomethylcoumarin.
T1 chain: RLRGG

Substitutions are numbered along the chain they refer to. Numbers in names are those of the source.

For orientation: kcat/KM means the second-order rate constant that governs catalysis at low substrate concentration.

Chain of ubiquitin-aminomethylcoumarin, P0CG48 (P0CG48 whole entry, looked up): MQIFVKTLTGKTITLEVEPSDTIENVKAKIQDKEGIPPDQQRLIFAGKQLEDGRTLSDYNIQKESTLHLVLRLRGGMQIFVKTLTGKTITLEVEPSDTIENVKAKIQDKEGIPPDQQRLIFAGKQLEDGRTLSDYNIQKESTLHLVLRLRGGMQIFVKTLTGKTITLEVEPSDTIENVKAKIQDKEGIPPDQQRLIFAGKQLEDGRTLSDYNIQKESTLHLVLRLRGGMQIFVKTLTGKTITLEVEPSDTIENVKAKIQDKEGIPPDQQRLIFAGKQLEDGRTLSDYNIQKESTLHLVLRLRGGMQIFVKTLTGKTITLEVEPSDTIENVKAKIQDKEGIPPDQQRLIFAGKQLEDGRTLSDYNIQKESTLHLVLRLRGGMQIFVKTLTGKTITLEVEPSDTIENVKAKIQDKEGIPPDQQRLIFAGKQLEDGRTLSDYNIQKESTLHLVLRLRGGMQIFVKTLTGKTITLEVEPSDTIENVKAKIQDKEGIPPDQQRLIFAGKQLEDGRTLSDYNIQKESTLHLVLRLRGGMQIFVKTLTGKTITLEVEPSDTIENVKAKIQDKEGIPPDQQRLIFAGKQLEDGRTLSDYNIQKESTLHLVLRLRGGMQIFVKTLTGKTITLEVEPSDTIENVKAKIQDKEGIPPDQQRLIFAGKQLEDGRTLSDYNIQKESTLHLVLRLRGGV
Chain of FLAG-tagged ubiquitin, P0CG48 (P0CG48 whole entry, looked up): as above

B1: EAV nsp2-3 polyprotein (residues 261-1064 of EAV pp1a) with N-terminal HA tag, PLP2 mutant I353R (protein)
chain: GYNPPGDGACGYRCLAFMNGATVVSAGCSSDLWCDDELAYRVFQLSPTFTVTIPGGRVCPNAKYAMICDKQHWRVKRAKGVGLCLDESCFRGRCNCQRMSGPPPAPVSAAVLDHILEAATFGNVRVVTPEGQPRPVPAPRVRPSANSSGDVKDPAPVPPVPKPRTKLATPNPTQAPIPAPRTRLQGASTQEPLASAGVASDSAPKWRVAKTVYSSAERFRTELVQRARSVGDVLVQALPLKTPAVQRYTMTLKMMRSRFSWHCDVWYPLAVIACLLPIWPSLALLLSFAIGLIPSVGNNVVLTALLVSSANYVASMDHQCEGAACLALLEEEHYYRAVRWRPITGALSLVLNLLGQVGYVARSTFDAAYVPCTVFDLCSFAILYLCRNRCWRCFGRCVRVGPATHVLGSTGQRVSKLALIDLCDHFSKPTIDVVGMATGWSGCYTGTAAMERQCASTVDPHSFDQKKAGATVYLTPPVNSGSALQCLNVMWKRPIGSTVLGEQTGAVVTAVKSISFSPPCCVSTTLPTRPGVTVVDHALYNRLTASGVDPALLRVGQGDFLKLNPGFRLIGGWIYGICYFVLVVVSTFTCLPIKCGIGTRDPFCRRVFSVPVTKTQEHCHAGMCASAEGISLDSLGLTQLQSYWIAAVTSGLVILLVCHRLAISALDLLTLASPLVLLVFPWASVGLLLACSLAGAAVKIQLLATLFVNLFFPQATLVTMGYWACVAALAVYSLMGLRVKVNVPMCVTPAHFLLLARSAGQSREQMLRVSAAAPTNSLLGVARDCYVTGTTRLYIPKEGGMVFE
On to B1, for which the “density of the alpha-flag lane (amount of remaining ubiquitin conjugates)” value in data set [1] is “shows a density of the alpha-flag lane that is about twice as high as that of the T312A lane”.

B2: EAV nsp2-3 polyprotein (residues 261-1064 of EAV pp1a) with N-terminal HA tag, PLP2 mutant T312A (protein)
chain: B1 chain with T52A, R93I
Consider B2, for which the “density of the alpha-flag lane (amount of remaining ubiquitin conjugates)” value in data set [1] is “a mutant such as T312A already shows a level of DUB-activity that leads to a significantly denser alpha-flag lane, which represents the amount of remaining ubiquitin conjugates, than that of the wild-type virus”.

B3: EAV PLP2 domain (residues 261-392 of EAV pp1a) with C-terminal HIS6 purification tag, wild-type (protein)
chain: GYNPPGDGACGYRCLAFMNGATVVSAGCSSDLWCDDELAYRVFQLSPTFTVTIPGGRVCPNAKYAMICDKQHWRVKRAKGVGLCLDESCFRGICNCQRMSGPPPAPVSAAVLDHILEAATFGNVRVVTPEGQHHHHHH
With B3, the kcat/KM turned out to be 21000 ± 2000 M⁻¹ s⁻¹ in data set [2] and 48 ± 8 M⁻¹ s⁻¹ in data set [3].

B4: EAV PLP2 domain I353R mutant (Ile353Arg), recombinant enzyme (protein)
chain: B3 chain with I93R
For the protein B4, the kcat/KM turned out to be 1100 ± 100 M⁻¹ s⁻¹ in data set [2] and 71 ± 8 M⁻¹ s⁻¹ in data set [3]. Also, in data set [2], the “kcat/KM value for Ub-AMC against that of the wild-type” value was “the kcat/KM value for Ub-AMC of the mutant I353R is 20 times lower than that of the wild-type virus”.

The values above are taken from patent publication US20140154265.
